Data reported in patent US20230303690A1 (published 2023).
Read-outs that look alike come from different tables or passages of the source.

What was measured:
[1] = biological target: T1, human LAG3 expressed on cells (human, UniProt P18627 23-525); experiment: FACS, 293T-hLAG3 cells
T1 construct: whole, on cells
T1 sequence (looked up): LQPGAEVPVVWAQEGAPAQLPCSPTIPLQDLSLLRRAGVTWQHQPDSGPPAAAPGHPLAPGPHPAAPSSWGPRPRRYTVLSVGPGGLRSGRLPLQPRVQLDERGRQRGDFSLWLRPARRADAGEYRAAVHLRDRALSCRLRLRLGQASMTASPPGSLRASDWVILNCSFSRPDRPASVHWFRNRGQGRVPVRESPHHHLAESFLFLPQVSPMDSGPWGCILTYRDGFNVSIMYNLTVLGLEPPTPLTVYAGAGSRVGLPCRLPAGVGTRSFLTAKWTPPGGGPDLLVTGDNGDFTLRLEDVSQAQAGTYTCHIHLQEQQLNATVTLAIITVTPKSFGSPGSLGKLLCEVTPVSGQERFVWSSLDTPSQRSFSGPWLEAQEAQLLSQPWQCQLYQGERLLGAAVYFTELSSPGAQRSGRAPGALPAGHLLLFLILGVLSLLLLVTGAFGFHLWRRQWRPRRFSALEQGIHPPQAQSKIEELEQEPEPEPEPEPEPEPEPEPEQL
Procedure: 5) The prepared antibody samples were added to the 96-well plate according to the platemap, the cells were resuspended and incubate at 4° C. for 1 hour.
7) 3% BSA/1xPBS was used to dilute Goat polyclonal Secondary Antibody to Human IgG-Fc (DyLight® 650) to the desired concentration (1:200), in which the cells were resuspended and incubated at 4° C. for 1 hour.
9) The cells were resuspended in 200 µl of 3% BSA/1xPBS, and performed flow cytometric testing by Shsti Biotech Inc.

[2] = biological target: T2, LAG3 Protein, Human, Recombinant (His Tag) (Sino Biological Catalog No. 16498-H08H) (human, UniProt P18627 23-450); experiment: ELISA, coated hLAG3-His
T2 construct: Bought protein; also called hLAG3-His; LAG3-His; not shown: His tag
T2 sequence (looked up): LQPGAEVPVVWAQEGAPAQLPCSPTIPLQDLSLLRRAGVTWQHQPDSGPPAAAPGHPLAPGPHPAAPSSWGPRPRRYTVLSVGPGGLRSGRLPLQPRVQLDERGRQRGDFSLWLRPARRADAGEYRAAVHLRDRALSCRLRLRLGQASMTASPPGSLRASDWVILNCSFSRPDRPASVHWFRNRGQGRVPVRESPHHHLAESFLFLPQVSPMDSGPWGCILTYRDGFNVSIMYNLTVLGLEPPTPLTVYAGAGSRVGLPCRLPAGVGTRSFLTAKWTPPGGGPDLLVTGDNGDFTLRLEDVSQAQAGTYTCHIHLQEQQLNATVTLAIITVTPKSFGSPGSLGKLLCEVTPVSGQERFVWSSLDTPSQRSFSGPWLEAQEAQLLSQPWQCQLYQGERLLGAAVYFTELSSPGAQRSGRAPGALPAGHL
Procedure: (§1) Plates were coated with 100 µL per well of Coating Solution, and then covered, and incubated overnight (12-18 hours) at 2-8° C. The wells were aspirated and washed 1 time with >200 µL of Wash buffer per well, inverted and tapped on absorbent paper to remove excess liquid. The plates were blocked with 200 µL per well with Blocking buffer (1×PBS+4% milk) for 1 hour at room temperature, aspirated, inverted, and tapped on absorbent paper to remove excess liquid. Standards and sample dilutions were prepared in Blocking buffer. 100 µL of standards (in duplicate) and samples were pipetted into designated wells. After incubation for 1 hour at room temperature with gentle continual shaking (~500 rpm), the wells were aspirate and washed 3 times with >200 µL of Wash buffer per well, inverted and tapped on absorbent paper to remove excess liquid.
(§2) The primary antibody solution was diluted with Blocking buffer. See Table 14 for recommended primary antibody dilution. 100 µL of the primary antibody solution was added into each well and incubated for 2 hours at room temperature with gentle continual shaking (~500 rpm). The wells were aspirated and washed 3 times with >200 µL of Wash buffer per well, inverted and tapped on absorbent paper to remove excess liquid. The working solution of secondary antibody was made with Blocking buffer by diluting the secondary antibody by 2,500 times. 100 µL of secondary antibody working solution was added into each well and incubated for 30 minutes at room temperature. The wells were aspirated and washed 5 times with >200 µL of Wash buffer per well, inverted and tapped on absorbent paper to remove excess liquid. 100 µL of TMB substrate solution (Biopanda, TMB-S-004) was added to each well and incubated for 30 minutes at room temperature. 100 µL of Stop solution (Solarbio, C1058) was added to each well. Absorbance at 450 nm was measured within 30 minutes of adding Stop solution. Results were calculated using a log-log or 4-parameter curve fit.

[3] = biological target: T2, LAG3 Protein, Human, Recombinant (His …); experiment: ELISA, coated hLAG3-His; remark: listed apart in the source
Procedure: as §1
as §2, with “well.” for “well. Absorbance at 450 nm was measured within 30 minutes of adding Stop solution. Results were calculated using a log-log or 4-parameter curve fit.”

[4] = biological target: T1, human LAG3 expressed on cells; experiment: cell ELISA, 293T-hLAG3 cells
Procedure: Each well was treated with stimulants. The cells were then fixed and blocked with Blocking buffer. The Primary antibodies were added. The wells were washed and a HRP-conjugated secondary antibody was added. The wells were washed with 1x PBS and a solution containing TMB (Biopanda, TMB-S-004) was added. The TMB reacted with HRP to change the color thereof from colorless to blue. An acid stop solution (Solarbio, C1058) was then added to stop the reaction and change the blue color to yellow.
Materials are listed below: [0072] […] 2) Blocking buffer: 1×PBS+3% BSA (Sigma, B2064); [0074] […] [0075] 4) Secondary antibody: Goat anti-human IgG1 Fc antibody, HRP (1:2500, invitrogen, A18817). [0076]

[5] = biological target: T2, LAG3 Protein, Human, Recombinant (His …); experiment: SPR (Biacore), sdAb captured by anti-human Fc, LAG3-His analyte
Procedure: The binding of the single domain antibodies to recombinant human LAG3 protein (rhLAG3) was examined by Biacore™ assay. […] The coating was carried out according to the manufacturer’s instructions accompanying the kit (Catalog No. BR-1008-39, GE). […] The chip surface was regenerated after each cycle with 25 mM NaOH followed by HBS-EP wash provided in the kit.

| Binder | EC50 [1] [nM] | FACS signal at 0.061 nM [1] | FACS signal at 0.1829 nM [1] | FACS signal at 0.5487 nM [1] | FACS signal at 1.6461 nM [1] | FACS signal at 4.9383 nM [1] | FACS signal at 14.815 nM [1] | FACS signal at 44.445 nM [1] | FACS signal at 133.335 nM [1] | EC50 [2] [nM] | OD450 at 0.061 nM [2] | OD450 at 0.1829 nM [2] | OD450 at 0.5487 nM [2] | OD450 at 1.6461 nM [2] | OD450 at 4.9383 nM [2] | OD450 at 14.815 nM [2] | OD450 at 44.445 nM [2] | OD450 at 133.335 nM [2] | EC50 [3] [nM] | OD450 at 0.004572 ug/ml [3] | also measured |
| --- | --- | --- | --- | --- | --- | --- | --- | --- | --- | --- | --- | --- | --- | --- | --- | --- | --- | --- | --- | --- | --- |
| sdAb No. 25-B7 (VHH, Humanized sdAb No. 25; not shown: Fc part implied by anti-human IgG Fc detection) VHH: QLQLVESGGGLVKPGGSLRLSCAASGSIESFSFMGWYRQAPGKQRELVAGFTGAASLSFSTYTDAVKGRFTISRDNAKNSVYLQMNSLRAEDTAVYFCNVDPWSQSWPGRYWGQGTTVTVSS | 0.6 | 191 | 487 | 1110 | 1690 | 2030 | 2210 | 2480 | 2380 | 2 | 0.038 | 0.057 | 0.132 | 0.648 | 1.25 | 1.41 | 1.33 | 1.66 | – | – | – |
| sdAb No. 27-H1 (VHH, Modified sdAb No. 27 (CDR2 DG to DA); not shown: Fc part implied by anti-human IgG1 Fc detection) VHH: QVQLVESGGGLVQPGGSLRLSCAASGFTLDYYAIGWFRQAPGKEREGVSCIRSSDASTYYADSVKGRFTISSDNTKNTVYLQMNSLKPEDTAVYYCATDRYSDCRGPYENWGQGTQVTVSS | – | – | – | – | – | – | – | – | – | – | – | – | – | – | – | – | – | – | 3.28 | 0.04 | OD450 at 0.013717 ug/ml [3]: 0.043; OD450 at 0.041152 ug/ml [3]: 0.063; OD450 at 0.123457 ug/ml [3]: 0.36; OD450 at 0.37037 ug/ml [3]: 1.42; OD450 at 1.111111 ug/ml [3]: 1.8; OD450 at 3.333333 ug/ml [3]: 2; OD450 at 10 ug/ml [3]: 1.95; EC50 [4]: 1.4 nM; OD450 at 0.0045725 ug/ml [4]: 0.076; OD450 at 0.0137174 ug/ml [4]: 0.171; OD450 at 0.0411523 ug/ml [4]: 0.359; OD450 at 0.1234568 ug/ml [4]: 0.719; OD450 at 0.3703704 ug/ml [4]: 1.08; OD450 at 1.111111 ug/ml [4]: 1.17; OD450 at 3.333333 ug/ml [4]: 1.24; OD450 at 10 ug/ml [4]: 1.33 |
| sdAb No. 27-H1B3 (VHH, Humanized sdAb No. 27-H1; not shown: Fc part implied by anti-human IgG Fc detection) VHH: QVQLVESGGGLVQPGGSLRLSCAASGFTLDYYAIGWFRQAPGKEREGVSCIRSSDASTYYADSVKGRFTISSDNSKNTVYLQMNSLRAEDTAVYYCATDRYSDCRGPYENWGQGTMVTVSS | 1.18 | 234 | 585 | 1420 | 2810 | 3820 | 4360 | 4620 | 4630 | 2.08 | 0.038 | 0.057 | 0.212 | 1.15 | 2.53 | 2.88 | 2.91 | 2.99 | – | – | – |
| sdAb No. 27-H2 (VHH, Modified sdAb No. 27 (CDR2 DG to EG); not shown: Fc part implied by anti-human IgG1 Fc detection) VHH: QVQLVESGGGLVQPGGSLRLSCAASGFTLDYYAIGWFRQAPGKEREGVSCIRSSEGSTYYADSVKGRFTISSDNTKNTVYLQMNSLKPEDTAVYYCATDRYSDCRGPYENWGQGTQVTVSS | – | – | – | – | – | – | – | – | – | – | – | – | – | – | – | – | – | – | 3.73 | 0.038 | OD450 at 0.013717 ug/ml [3]: 0.043; OD450 at 0.041152 ug/ml [3]: 0.063; OD450 at 0.123457 ug/ml [3]: 0.334; OD450 at 0.37037 ug/ml [3]: 1.43; OD450 at 1.111111 ug/ml [3]: 1.96; OD450 at 3.333333 ug/ml [3]: 2.08; OD450 at 10 ug/ml [3]: 2.27; EC50 [4]: 1.55 nM; OD450 at 0.0045725 ug/ml [4]: 0.075; OD450 at 0.0137174 ug/ml [4]: 0.152; OD450 at 0.0411523 ug/ml [4]: 0.314; OD450 at 0.1234568 ug/ml [4]: 0.626; OD450 at 0.3703704 ug/ml [4]: 1.07; OD450 at 1.111111 ug/ml [4]: 1.16; OD450 at 3.333333 ug/ml [4]: 1.14; OD450 at 10 ug/ml [4]: 1.2 |
| sdAb No. 17-H5 (VHH, Modified sdAb No. 17 (CDR1 and CDR2 DG to DA); not shown: Fc part implied by anti-human IgG1 Fc detection) VHH: QLQLVESGGGLVQPGGSLRLSCAASGLTLDAYAIGWFRQAPGKEREGLACISGSDASTHYLDSVKGRFTISRDNGKNTMALQMNSLQFGDTAIYYCAARRGSCSGSWTYWGQGTQVTVSS | – | – | – | – | – | – | – | – | – | – | – | – | – | – | – | – | – | – | 1.19 | – | – |
| sdAb No. 8 (VHH, Fc of the tested form not described; not shown: Fc part implied by anti-human Fc capture) VHH: QLQLVESGGGLVQPGGSLRLSCAASGFTLDYYAIGWFRQAPGKEREGVSCISSSDGSTYYADSVKGRFTISRDNAKNTVYLQMNSLKPEDTAIYYCARDSLSGSGYGCRGPYDYWGQGTQVTVSS | – | – | – | – | – | – | – | – | – | – | – | – | – | – | – | – | – | – | – | – | Kd [5]: 0.347 nM; koff [5]: 0.000277 s⁻¹; kon [5]: 797000 M⁻¹ s⁻¹ |
